{"source": "patent US20100286365A1", "about": "(AMYLIN PHARMACEUTICALS, published 2010)", "binders": {"B1": {"name": "GLP-1(7-37)-γ-Abu-N^ε2Lys-(Pyr)-WAP-OH (peptide)", "peptide 1": "HAEGTFTSDVSSYLEGQAAKEFIAWLVKGRG", "peptide 2": "[pGlu]KWAP-OH", "modifications": "not fully specified (C-terminus); also: linker at chain B 2 to a chain's C-terminus via γ-Abu"}, "B2": {"name": "GLP-1(7-37)-GG-(S)-2,6-diamino-1-(thiazolidin-3-yl)hexan-1-one amide (peptide)", "peptide": "HAEGTFTSDVSSYLEGQAAKEFIAWLVKGRGGG", "modifications": "C-terminal Gly amide-linked to (S)-2,6-diamino-1-(thiazolidin-3-yl)hexan-1-one (Lys-thiazolidide, DPP-IV inhibitor motif)", "notes": "also called Cmpd 4844; 4844"}, "B3": {"name": "GLP-1(7-37)-GG-(S)-2,6-diamino-1-(thiazolidin-2-cyano-3-yl)hexan-1-one amide (peptide)", "peptide": "B2 peptide", "modifications": "C-terminal Gly amide-linked to (S)-2,6-diamino-1-(thiazolidin-2-cyano-3-yl)hexan-1-one (Lys-2-cyanothiazolidide, DPP-IV inhibitor motif)", "notes": "also called Cmpd 4845; 4845"}, "B4": {"name": "[^2D-Ala^14Leu] GIP(1-30)-βAla-βAla-ε-NH-Lys(α-NH-Pyroglutamoyl)-Trp-Ala-Pro (peptide)", "peptide 1": "Y[dA]EGTFISDYSIALDKIHQQDFVNWLLAQK", "peptide 2": "[pGlu]KWAP-OH", "modifications": "not fully specified (C-terminus); printed as [^2D-Ala^14Leu] GIP(1-30)-βAla-βAla-ε-NH-Lys(α-NH-Pyroglutamoyl)-Trp-Ala-Pro; also: linker at chain B 2 to a chain's C-terminus via βAla-βAla", "notes": "also called [^2D-Ala,^14Leu]; GIP-(1-30)-β-Ala-β-Ala-Lys(α-NH-Pyroglutamoyl)-Trp-Ala-Pro-COOH"}, "B5": {"name": "[^2D-Ala] GIP(1-30)-Ado-Ado-Aun-βAla-βAla-ε-NH-Lys(α-NH-Pyroglutamoyl)-Trp-Ala-Pro (peptide)", "peptide 1": "Y[dA]EGTFISDYSIAMDKIHQQDFVNWLLAQK", "peptide 2": "[pGlu]KWAP", "modifications": "not fully specified (C-terminus); printed as [^2D-Ala] GIP(1-30)-Ado-Ado-Aun-βAla-βAla-ε-NH-Lys(α-NH-Pyroglutamoyl)-Trp-Ala-Pro; also: linker at chain B 2 to a chain's C-terminus via Ado-Ado-Aun-βAla-βAla"}}, "note": "Where no end group is shown, it is not given here. Side-chain parts run from the residue outwards. [ ]: non-standard residue; d: D form. lisinopril monoester = lisinopril with its ethyl ester not hydrolysed, amide-linked to γ-Abu; linker type G21 = not defined here; linker type C9 = not defined here; pGlu = O=C1CC[C@@H](C(=O)O)N1; AEEA = NCCOCCOCC(=O)O; GABA = NCCCC(=O)O", "data": [{"target": "T1, GLP-1 receptor endogenously expressed by the thyroid c-cell carcinoma line 6-23 (UniProt P32301 22-463)", "T1 sequence (looked up)": "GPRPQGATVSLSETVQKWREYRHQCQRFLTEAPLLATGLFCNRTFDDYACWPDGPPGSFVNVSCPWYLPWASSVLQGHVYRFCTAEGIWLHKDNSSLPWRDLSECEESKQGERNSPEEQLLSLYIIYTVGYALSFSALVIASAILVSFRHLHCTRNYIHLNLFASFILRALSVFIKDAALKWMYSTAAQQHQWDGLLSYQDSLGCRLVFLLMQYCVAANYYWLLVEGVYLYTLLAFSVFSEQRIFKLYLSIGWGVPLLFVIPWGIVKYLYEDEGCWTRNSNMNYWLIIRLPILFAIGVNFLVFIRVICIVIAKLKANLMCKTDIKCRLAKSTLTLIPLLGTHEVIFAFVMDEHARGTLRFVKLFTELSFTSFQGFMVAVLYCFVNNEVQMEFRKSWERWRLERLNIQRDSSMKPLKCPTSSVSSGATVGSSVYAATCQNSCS", "experiment": "cell-based or functional assay", "units": {"GLP Cyclase EC50": "nM"}, "values": [{"binder": "HAEGTFTSDVTQQLDEKAAKEFIDWLINGGPSKEIIS-{linker type G21-lisinopril} (reading uncertain)", "note": "[Compound 5713]", "GLP Cyclase EC50": 2.89}, {"binder": "HAEGTFTSDVTQQLDEKAAKEFIDWLINGGPSKEIIS", "note": "[Compound 4202]", "GLP Cyclase EC50": 0.03}, {"binder": "HAEGTFTSDVTQQLDEKAAKEFIDWLINGGPSKEIIS-{linker type C9-lisinopril} (reading uncertain)", "note": "[Compound 5714]", "GLP Cyclase EC50": 2.93}]}, {"target": "T2, ACE from rabbit lung (rabbit, UniProt P12822 34-1310, limits assumed)", "T2 sequence (looked up)": "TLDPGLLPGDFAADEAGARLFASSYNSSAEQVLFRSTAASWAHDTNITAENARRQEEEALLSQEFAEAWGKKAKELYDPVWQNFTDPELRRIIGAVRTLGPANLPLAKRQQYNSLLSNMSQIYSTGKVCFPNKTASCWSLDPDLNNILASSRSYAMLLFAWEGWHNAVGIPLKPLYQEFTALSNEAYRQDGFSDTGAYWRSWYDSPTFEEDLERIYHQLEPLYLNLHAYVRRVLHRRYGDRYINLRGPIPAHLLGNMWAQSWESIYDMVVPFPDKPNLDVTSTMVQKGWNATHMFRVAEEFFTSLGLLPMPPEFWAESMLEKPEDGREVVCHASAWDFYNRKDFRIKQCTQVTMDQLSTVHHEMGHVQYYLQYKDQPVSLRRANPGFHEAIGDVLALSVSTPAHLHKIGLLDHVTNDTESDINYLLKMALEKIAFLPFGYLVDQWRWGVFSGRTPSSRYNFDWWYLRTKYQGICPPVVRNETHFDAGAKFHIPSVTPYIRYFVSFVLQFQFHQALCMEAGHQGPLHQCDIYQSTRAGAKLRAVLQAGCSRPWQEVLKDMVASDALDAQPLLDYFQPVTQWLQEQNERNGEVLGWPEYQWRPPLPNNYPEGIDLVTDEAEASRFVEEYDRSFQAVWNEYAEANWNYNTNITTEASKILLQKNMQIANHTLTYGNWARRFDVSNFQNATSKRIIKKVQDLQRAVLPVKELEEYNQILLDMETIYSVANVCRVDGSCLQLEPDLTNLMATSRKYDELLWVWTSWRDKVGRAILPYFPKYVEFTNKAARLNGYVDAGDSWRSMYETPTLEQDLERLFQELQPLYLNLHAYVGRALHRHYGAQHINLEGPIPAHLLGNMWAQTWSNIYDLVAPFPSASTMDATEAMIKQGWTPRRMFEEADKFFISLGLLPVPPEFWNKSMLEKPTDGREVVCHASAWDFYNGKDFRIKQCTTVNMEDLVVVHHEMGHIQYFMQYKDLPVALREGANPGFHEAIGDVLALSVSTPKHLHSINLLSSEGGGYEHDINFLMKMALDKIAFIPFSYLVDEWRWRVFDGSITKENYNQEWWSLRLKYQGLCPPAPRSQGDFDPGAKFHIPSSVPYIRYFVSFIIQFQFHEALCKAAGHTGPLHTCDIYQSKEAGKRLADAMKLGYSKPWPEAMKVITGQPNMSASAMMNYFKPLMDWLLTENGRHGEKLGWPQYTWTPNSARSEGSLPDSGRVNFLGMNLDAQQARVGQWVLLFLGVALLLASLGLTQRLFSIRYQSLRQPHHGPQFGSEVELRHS", "experiment": "cell-based or functional assay", "units": {"ACE inhibition IC50": "nM"}, "values": [{"binder": "HAEGTFTSDVTQQLDEKAAKEFIDWLINGGPSKEIIS-{linker type G21-lisinopril} (reading uncertain)", "note": "[Compound 5713]", "ACE inhibition IC50": 700}, {"binder": "HAEGTFTSDVTQQLDEKAAKEFIDWLINGGPSKEIIS-{linker type C9-lisinopril} (reading uncertain)", "note": "[Compound 5714]", "ACE inhibition IC50": 350}, {"binder": "HAEGTFTSDVSSYLEGQAAKEFIAWLVKGRG (lisinopril joined at the C-terminus through linker type G21 (FIG. 2))", "note": "[Compound 5607]", "ACE inhibition IC50": 100}, {"binder": "HAEGTFTSDVSSYLEGQAAKEFIAWLVKGRG (lisinopril joined at the C-terminus through linker type C9 (FIG. 2))", "note": "[Compound 5547]", "ACE inhibition IC50": 180}]}, {"target": "Recombinant DPP-IV", "experiment": "cell-based or functional assay", "units": {"DPP-IV inhibition IC50": "nM"}, "values": [{"binder": "IPI", "note": "[Diprotin A (Ile-Pro-Ile)]", "DPP-IV inhibition IC50": 5100}]}, {"target": "T2, ACE from rabbit lung", "experiment": "cell-based or functional assay", "remark": "another data set of the same source", "units": {"ACE inhibition IC50": "nM"}, "values": [{"binder": "B1", "ACE inhibition IC50": "> 10000"}, {"binder": "HAEGTFTSDVSSYLEGQAAKEFIAWLVKGRG (C-terminus extended by γ-Abu-β-Ala and amide-linked (CONH) to lisinopril diacid)", "note": "[GLP-1(7-37)-γ-Abu-β-Ala-CONH-lisinopril diacid]", "ACE inhibition IC50": 180}, {"binder": "HAEGTFTSDVSSYLEGQAAKEFIAWLVKGRG-{GABA-lisinopril monoester}", "note": "[GLP-1(7-37)-γ-Abu-CONH-lisinopril monoester]", "ACE inhibition IC50": "> 100000"}]}, {"target": "T3, GLP-1 receptor endogenously expressed by RIN m5f cells (UniProt P32301 22-463, limits assumed)", "T3 construct": "whole, on cells; Membrane fractions were used in the assays", "T3 sequence (looked up)": "T1 sequence (looked up)", "experiment": "displacement of [125I]GLP-1 tracer from RIN m5f cell membranes (endogenous GLP-1 receptor), filter binding", "units": {"IC50": "nM"}, "experimental": "Membrane fractions were prepared from confluent cultures of RIN m5f cells. […] The reaction mixtures were constantly mixed at 23° C. for 2 hours. The reaction mixtures were filtered through glass filter pads presoaked with 0.3% PEI solution and rinsed with ice-cold phosphate buffered saline. Counts bound to the filer pads were determined using a scintillation counter and binding affinities were calculated using GraphPad PRISM® software (GraphPad Software, Inc., San Diego, Calif.).", "values": [{"binder": "B2", "IC50": 0.087}, {"binder": "B3", "IC50": 0.1}]}, {"target": "T4, human GIP receptor (human, UniProt P48546 22-466)", "T4 construct": "whole, on cells; Membrane fractions of HEK-GIPR cells were used; also called HEK-GIPR", "T4 sequence (looked up)": "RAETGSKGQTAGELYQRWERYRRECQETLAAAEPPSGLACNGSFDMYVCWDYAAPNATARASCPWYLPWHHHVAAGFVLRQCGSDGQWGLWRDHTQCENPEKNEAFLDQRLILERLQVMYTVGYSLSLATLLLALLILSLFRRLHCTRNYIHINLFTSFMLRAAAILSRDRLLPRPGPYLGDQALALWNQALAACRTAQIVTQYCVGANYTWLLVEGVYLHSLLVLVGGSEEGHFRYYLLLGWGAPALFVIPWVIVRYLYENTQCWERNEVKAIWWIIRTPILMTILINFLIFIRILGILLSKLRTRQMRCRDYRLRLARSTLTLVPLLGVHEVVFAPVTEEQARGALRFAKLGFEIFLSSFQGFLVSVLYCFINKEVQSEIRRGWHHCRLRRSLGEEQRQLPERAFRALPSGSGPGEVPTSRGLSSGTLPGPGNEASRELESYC", "experiment": "displacement of 30 pM 125I-GIP from HEK-GIPR membranes by 10 nM conjugate, relative to human GIP (100%)", "units": {"GIP RBA % inhibition at 10 nM": "%"}, "experimental": "Membrane fractions were prepared from confluent cell cultures of HEK-GIPR, snap frozen, and stored at −80° C. until use. […] Reactions were allowed to proceed to equilibrium for 90 minutes at room temperature with constant shaking. The reaction mixtures were then filtered through 96-well glass fiber filter plates separating bound and unbound fractions of radioligand.", "values": [{"binder": "YAEGTFISDYSIAMDKIHQQDFVNWLLAQK([AEEA-γ‑L‑Glu‑2‑(S)‑cyano pyrrolidyl])", "note": "[Lys^30 N-ε-(Ado-(γ-L-Glu-2-(S)-cyano pyrrolidyl)) GIP(1-30)]", "GIP RBA % inhibition at 10 nM": 33}, {"binder": "YAEGTFISDYSIALDKIHQQDFVNWLLAQK-{AEEA-Lys‑N‑ε‑(2-(S)-cyano pyrrolidyl)}", "note": "[[^14Leu] GIP(1-30)-Ado-Lys-N-ε-(2-(S)-cyano pyrrolidyl)]", "GIP RBA % inhibition at 10 nM": 100}, {"binder": "B4", "GIP RBA % inhibition at 10 nM": 66}, {"binder": "B5", "GIP RBA % inhibition at 10 nM": 70}, {"binder": "YAEGTFISDYSIAMDKIHQQDFVNWLLAQK (not fully specified (N-terminus))", "note": "[N-(γ-L-Glu-2-(S)-cyano pyrrolidyl)-Ado-Ado) GIP(1-30)]", "GIP RBA % inhibition at 10 nM": 32}, {"binder": "YAEGTFISDYSIAMDKIHQQDFVNWLLAQK (C-terminus extended by Ado-Lys-N-ε-(2-(S)-cyano pyrrolidyl))", "note": "[GIP(1-30)-Ado-Lys-N-ε-(2-(S)-cyano pyrrolidyl)]", "GIP RBA % inhibition at 10 nM": 99}, {"binder": "YAEGTFISDYSIAMDKIHQQDFVNWLLAQK (C-terminus extended by Ado-Ado-Lys-N-ε-(2-(S)-cyano pyrrolidyl))", "note": "[GIP(1-30)-Ado-Ado-Lys-N-ε-(2-(S)-cyano pyrrolidyl)]", "GIP RBA % inhibition at 10 nM": 97}]}, {"target": "T3, GLP-1 receptor endogenously expressed …", "experiment": "cell-based or functional assay", "units": {"GLP Cyclase EC50": "nM"}, "values": [{"binder": "B2", "GLP Cyclase EC50": 0.13}, {"binder": "B3", "GLP Cyclase EC50": 0.4}]}, {"target": "Recombinant DPP-IV", "experiment": "cell-based or functional assay", "remark": "another data set of the same source", "units": {"DPP-IV IC50": "nM"}, "values": [{"binder": "HAEGTFTSDVSSYLEGQAAKEFIAWLVKGR-NH2", "note": "[GLP-1]", "DPP-IV IC50": "> 3300"}, {"binder": "B2", "DPP-IV IC50": 91}, {"binder": "B3", "DPP-IV IC50": 76}]}]}
